assay: soluble on expression in E. coli; label from the status in PepcDB or PDB records

Sequence	soluble on expression in E. coli
MGGSHHHHHHGMASALAELSEEALLSVLPTIRVPKAGDRVHKDECAFSFDTPESEGGLYICMNTFLGFGKQYVERHFNKTGQRVYLHLRRTRRPKEEDPATGTGDPPRKKPTRLAIGVEGGFDLSEEKFELDEDVKIVILPDYLEIARDGLGGLPDIVRDRVTSAVEALLSADSASRKQEVQAWDGEVRQVSKHAFSLKQLDNPARIPPCGWKCSKCDMRENLWLNLTDGSILCGRRYFDGSGGNNHAVEHYRETGYPLAVKLGTITPDGADVYSYDEDDMVLDPSLAEHLSHFGIDMLKMQKTDKTMTELEIDMNQRIGEWELIQESGVPLKPLFGPGYTGIRNLGNSCYLNSVVQVLFSIPDFQRKYVDKLEKIFQNAPTDPTQDFSTQVAKLGHGLLSGEYSKPVPESGDGERVPEQKEVQDGIAPRMFKALIGKGHPEFSTNRQQDAQEFFLHLINMVERNCRSSENPNEVFRFLVEEKIKCLATEKVKYTQRVDYIMQLPVPMDAALNKEELLEYEEKKRQAEEEKMALPELVRAQVPFSSCLEAYGAPEQVDDFWSTALQAKSVAVKTTRFASFPDYLVIQIKKFTFGLDWVPKKLDVSIEMPEELDISQLRGTGLQPGEEELPDIAPPLVTPDEPKAPMLDESVIIQLVEMGFPMDACRKAVYYTGNSGAEAAMNWVMSHMDDPDFANPLILPGSSGPGSTSAAADPPPEDCVTTIVSMGFSRDQALKALRATNNSLERAVDWIFSHIDDLDAEAAMDISEGRSAADSISESVPVGPKVRDGPGKYQLFAFISHMGTSTMCGHYVC	not soluble
MGGSHHHHHHGMASALAMAPSPSLVQVYTSPAAVAVWEWQDGLGTWHPYSATVCSFIEQQFVQQKGQRFGLGSLAHSIPLGQADPSLAPYIIDLPSWTQFRQDTGTMRAVRRHLFPQHSAPGRGVVWEWLSDDGSWTAYEASVCDYLEQQVARGNQLVDLAPLGYNYTVNYTTHTQTNKTSSFCRSVRRQAGPPYPVTTIIAPPGHTGVACSCHQCLSGSRTGPVSGRYRHSMTNLPAYPVPQHPPHRTASVFGTHQAFAPYNKPSLSGARSAPRLNTTNAWGAAPPSLGSQPLYRSSLSHLGPQHLPPGSSTSGAVSASLPSGPSSSPGSVPATVPMQMPKPSRVQQALAGMTSVLMSAIGLPVCLSRAPQPTSPPASRLASKSHGSVKRLRKMSVKEATPKPEPEPEQVIKNYTEELKVPPDEDCIICMEKLSTASGYSDVTDSKAIGSLAVGHLTKCSHAFHLLCLLAMYCNGNKDGSLQCPSCKTIYGEKTGTQPQGKMEVLRFQMSLPGHEDCGTILIVYSIPHGIQGPEHPNPGKPFTARGFPRQCYLPDNAQGRKVLELLKVAWKRRLIFTVGTSSTTGETDTVVWNEIHHKTEMDRNITGHGYPDPNYLQNVLAELAAQGVTEDCLEQQ	not soluble
MGGSHHHHHHGMASALASYFDEHDCEPSDPEQETRTNMLLELARSLFNRMDFEDLGLVVDWDHHLPPPAAKTVVENLPRTVIRGSQAELKCPVCLLEFEEEETAIEMPCHHLFHSSCILPWLSKTNSCPLCRYELPTDDDTYEEHRRDKARKQQQQHRLENLHGAMYT	not soluble
MGGSHHHHHHGMASALDCCTENACSKPDDDILDIPLDDPGANAAAAKIQASFRGHMARKKIKSGERGRKGPGPGGPGGAGVARGGAGGGPSGD	not soluble
MGGSVDFERWFKGPAAIYGGIEYQTPYQPLRLKVEYDSNDYSQDFPVTRGNVDMTQHTPWNFGVLYGLGDWGDIKVSYQRGDTLTLGVNLTTNFNDMKAIWRDEPITAYDESSNQSIDEVDWQRVNQQLNGNAGYEDNRIYADDDSVTLVATQTKYRDSDEAHDRASRIFANHVPETISTYRIIETNQSMPVSETLIDAAQYKKVANNEYFDAKVADASQTDEVTYSPSEHSLKSDNLDRWDYSVSPTLSQSIGSAESFYLYAVGINTAGSVWLTDKVQASGSLYFNLFDNYDKFNYITPPDGTSVPRVRTMFRAYVHENPVRMNNLQLTWFEEYGAGFYSQMYAGYLESMFGGIGSEVMYRPLNSNWAFGIDATYIKQRTPGDWFGFYEQDHQEGGDYGRDYTVVSSGVTGFATAYYAPQWSFLKNTLLKVGVGQFLAGDKGTRIDFSKQFDSGVIAGAYASFTDLSAEEFGEGSYTKGFYISIPFDIMTVKPSKNRANFNWQPLTRDGGQMLNKQHDLYELTDERSPWFTRKGLLEHHHHHH	not soluble
MGGVMSYFRGLFGAREMRILILGLDGAGKTTILYRLQVGEVVTTIPTIGFNVEQVEYKNLKFQVWDLGGQTSIRPYWRCYYANTDAIIYVVDSADRDRVGISRQELATMLQEDELQGAVLAVLANKQDIAGCLTETEVYKALGLDALRNRTIQIFKTSASKGEGLDPAMDWLANQLQQKK	not soluble
MGHHHHHHGGHMSLNTISSLETTDLPAAYHIEQRAHAFPWSEKTFASNQGERYLNFQLTQNGKMAAFAITQVVLDEATLFNIAVDPDYQRQGLGRALLEHLIDELEKRGVATLWLEVRASNAAAIALYESLGFNEATIRRNYYPTTDGREDAIIMALPISMEGGS	soluble
MGHHHHHHGGHMSLQDFKKLPTVLTAEELIDKIFRRAARVEGRNPKEKALNKLATISNVSRDYFGKIIGAHPSYENLPDFYREMVDVVVGIRQLKKSLVALKWADGMIQKVVSRAVREVKGGKNPSAVVKSAYGRVASIIEQIDDELRFLNDAKNRMREIPILQDLPTIVVAGYPNVGKSSLVARISTVKPEVASYPFTTKKINLGFAEFAGKRVQIIDTPGLLDRPLSKRNRIERRAVLALKHLADIILFVIDPTETCGYSLEKQLSLLEEIKGYFAKPTVEVYSKADMHDRRDRQAYSAVTGEGIDELIKEIEKMVKIHSQTSTVIAPSGQTSTQEQHSEGGS	soluble
MGHHHHHHGGHMSLTDVNVKIDIMHPQPIVGLGNPAIFVQGSTQNYKEYTSLETLAKDFATTTTVYKKAEIIWKQENKPQTIAVVTFVADTPTSPEQPDSLIAGSGIIAAATSYFYNDWHFALLANFVEADALALSNLIEENEFKFLVIQTATVDELTVFTGNNLTIGLVHPLEEFLDAALIGNTASLTVGSVTWKFRHNLVGITPNTLTTSQLQAIEKANAIAYVSKAGIPQTSEGKTMSGEFIDALHGDHWVKSNIETNVQRLLSTTDKLTFDSNGIALLDTTVANVLETAFNNGIVDIVDETGVGNYSVTALGRQDLNPDDIAARNYKGLSFKYKRSGAIHTVDVTGTIEVEGGS	soluble
MGHHHHHHSHEHCAIILEDDRSDISSTCANNINHNTELLPIELDTLVGKGRFAEVYKAKLKQNTSEQFETVAVKIFPYEEYASWKTEKDIFSDINLKHENILQFLTAEERKTELGKQYWLITAFHAKGNLQEYLTRHVISWEDLRKLGSSLARGIAHLHSDHTPCGRPKMPIVHRDLKSSNILVKNDLTCCLCDFGLSLRLDPTLSVDDLANSGQVGTARYMAPEVLESRMNLENAESFKQTDVYSMALVLWEMTSRCNAVGEVKDYEPPFGSKVREHPCVESMKDNVLRDRGRPEIPSFWLNHQGIQMVCETLTECWDHDPEARLTAQCVAERFSELEHLDRLSGRSCSEEKIPEDGSLNTTK	not soluble
MGHHHHHHSHESVVPARMAEMARCIRERDFPSFAQLTMKDSNQFHATCLDTFPPISYLNAISWRIIHLVHRFNAHHGDTKVAYTFDAGPNAVIFTLDDTVAEFVAAVWHGFPPGSNGD	not soluble
MGHHHHHHSHLEDFFKNMVKSADGVIVSGVKDVDDFFEHERTFLLEYHNRVKDASAKSDRMTRSHKSAADDYNRIGSSLYALGTQDSTDICKFFLKVSELFDKTRKIEARVSADEDLKLSDLLKYYLRESQAAKDLLYRRSRSLVDYENANKALDKARAKNKDVLQAETSQQLCCQKFEKISESAKQELIDFKTRRVAAFRKNLVELAELELKHAKGNLQLLQNCLAVLNGDT	not soluble
MGHHHHHHSHMAAAIASSLIRQKRQAREREKSNACKCVSSPSKGKTSCDKNKLNVFSRVKLFGSKKRRRRRPEPQLKGIVTKLYSRQGYHLQLQADGTIDGTKDEDSTYTLFNLIPVGLRVVAIQGVQTKLYLAMNSEGYLYTSELFTPECKFKESVFENYYVTYSSMIYRQQQSGRGWYLGLNKEGEIMKGNHVKKNKPAAHFLPKPLKVAMYKEPSLHDLTEFSRSGSGTPTKSRSVSGVLNGGKSMSHNEST	soluble
MGHHHHHHSHMAAAVAMETDDAGNRLRFQLELEFVQCLANPNYLNFLAQRGYFKDKAFVNYLKYLLYWKDPEYAKYLKYPQCLHMLELLQYEHFRKELVNAQCAKFIDEQQILHWQHYSRKRMRLQQALAEQQQQNNTSGK	soluble
MGHHHHHHSHMAATAAVSPSDYLQPAASTTQDSQPSPLALLAATCSKIGPPAVEAAVTPPAPPQPTPRKLVPIKPAPLPLSPGKNSFGILSSKGNILQIQGSQLSASYPGGQLVFAIQNPTMINKGTRSNANIQYQAVPQIQASNSQTIQVQPNLTNQIQIIPGTNQAIITPSPSSHKPVPIKPAPIQKSSTTTTPVQSGANVVKLTGGGGNVTLTLPVNNLVNASDTGAPTQLLTASCQTGMLNSTRMFLFLAFINVL	not soluble
MGHHHHHHSHMACKCDCKNKQCKCGDKCECSGDKCCEKYCCEEASEKKCCPAGCKGDCKCANCHCAEQKQCGDKTHQHQGTAAAH	not soluble
MGHHHHHHSHMAGAQPGVHALQLKPVCVSDSLKKGTKFVKWDDDSTIVTPIILRTDPQGFFFYWTDQNKETELLDLSLVKDARCGRHAKAPKDPKLRELLDVGNIGRLEQRMITVVYGPDLVNISHLNLVAFQEEVAKEWTNEVFSLATNLLAQNMSRDAFLEKAYTKLKLQVTPEGRIPLKNIYRLFSADRKRVETALEACSLPSSRN	not soluble
MGHHHHHHSHMARATTKQDLIMASNGQFEKLWVLIDGMSDDLQNATFADQMATAGKEAHWGRDKNLRDVLVHLYEWHQLLLNWINSNSKGERKPFLPEPYNWKTYSVMNVEFWKKHQQTPLAEAKDKLKESHRQVMALIETFSNDELFAKGVFDWTDTSTLGAYCVSATSSHYDWAMKKIKLHIKTGK	soluble
MGHHHHHHSHMDDAAVLKRRGYLLGINLGEGSYAKVKSAYSERLKFNVAIKIIDRKKAPADFLEKFLPREIEILAMLNHCSIIKTYEIFETSHGKVYIVMELAVQGDLLELIKTRGALHEDEARKKFHQLSLAIKYCHDLDVVHRDLKCDNLLLDKDFNIKLSDFSFSKRCLRDDSGRMALSKTFCGSPAYAAPEVLQGIPYQPKVYDIWSLGVILYIMVCGSMPYDDSNIKKMLRIQKEHRVNFPRSKHLTGECKDLIYHMLQPDVNRRLHIDEILSHCWMQPKARGSPSVA	not soluble
MGHHHHHHSHMEKIKIIVASDSIGETAELVARAGISQFNPKQCKNELLRYPYIESFEDVDEVIQVAKDTNAIIVYTLIKPEMKQYMSEKVAEFQLKSVDIMGPLMDLLSASVEEKPYNEPGIVHRLDDAYFKKIDAIEFAVKYDDGKDPKGLPKADIVLLGISRTSKTPLSQYLAHKSYKVMNVPIVPEVTPPDGLYDIDPKKCIALKISEEKLNRIRKERLKQLGLGDTARYATEARIQEELNYFEEIVSEIGCPVIDVSQKAIEETANDIIHYIEQNKSK	soluble
MGHHHHHHSHMEKNLLLTIESLYKNLRKANKAVDFTTVKFLLQDSRSLLHAFSTRSNYDGILPQTFAQVNNLLQTFAEVKTKLKPNSSENTVTKKQEGTSLKNSHNQEITVFSSSHLPQPSRHQEIWSILESVWITIYQNSTDVFQRLGSNSALTTSNIASFEEAFICLQKLMAAVRDILEGIQRILAPNSNYQDVETLYNFLIKYEVNKNVKFTAQEIYDCVSQTEYREKLTIGCRQLVEMEYTMQQCNASVYMEAKNRGWCEDMLNYRI	not soluble

— the DeepSol protein solubility set
